Drawing on patent US20220259593A1, “CONTROL OF MAMMALIAN GENE DOSAGE USING CRISPR” (The Regents of the University of California, priority 2019, published 2022), this text covers Mean relative activity for 29 molecules.

This data set has as its system K562 CRISPRi cells. Description: Constant region variant library pooled growth screen, K562. It counts as cell-based, human. As to conditions: sgRNA constant region variants. Summed up: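 Cells were selected with puromycin for 2 days and then kept in RPMI-1640 spinner cultures, with duplicates handled separately. Targeting sequences comprised 3 sgRNAs per essential gene for 10 genes plus six non-targeting controls. Activities were normalized against pairing with the unmodified scaffold.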

[1] abbreviates: activity relative to the unmodified constant region cr995.
Setting [2] is: activity relative to the original, un-modified constant region cr995.
The mark [3] stands for this setting: relative to the original, un-modified constant region cr995, CRISPRi.

B1: cr173 (nucleic acid)
guide: GTTTAAGAGCTAAGCTGGAAACAGCATAGCAAGTTTAAATAAAGCTAGTCTGTTATCAACTTGAAAAAGTGGTAGCGAGTCGCTACT
modifications: listed as DNA, chemistry not fully specified
Molecule B1 displayed a Mean relative activity under setting [1] of 0.3244.

B2: cr623 (nucleic acid)
guide: GTTTAAGAGCTAAGCTGGAAACAGCATAGCAAGTTTAAATAAGGCTAGTCCGTTATCACTGTGAAAACAGGGCACCGAGTCGGTGCT
modifications: listed as DNA, chemistry not fully specified
B2 showed a Mean relative activity under setting [2] of 1.041.

B3: cr069 (nucleic acid)
guide: GCTTAAAAGCTAAGCTGGAAACAGCATAGCAAGTTTAAATAAGGCTAGTCCGTTATCAACTTGAAAAAGTGGCACCGAGTCGGTGCT
modifications: listed as DNA, chemistry not fully specified
The molecule B3 gave a Mean relative activity under setting [1] of 0.3244.

B4: cr051 (nucleic acid)
guide: TTTTAACAGCTAAGCTGGAAACAGCATAGCAAGTTTAAATAAGGCTAGTCCGTTATCAACTTGAAAAAGTGGCACCGAGTCGGTGCT
modifications: listed as DNA, chemistry not fully specified
In the case of B4, under setting [3], the Mean relative activity came to 0.3367.

B5: cr850 (nucleic acid)
guide: GTTTAAGAGCTAAGCTGGAAACAGCATAGCAAGTTTAAATAAGGCTAGTCCGTTATCAACTTGAAAAAGTGGCACCGGGGCGGTGCT
modifications: listed as DNA, chemistry not fully specified
For the molecule B5, the Mean relative activity under setting [1] was 0.3225.

B6: cr468 (nucleic acid)
guide: GTTTAAGAGCTAAGCTGGAAACAGCATAGCAAGATTAAATAAGGCTAGTCCGTTATCAACTTGAAAAAGTGGCACCGAGTCGGTGCT
modifications: listed as DNA, chemistry not fully specified
For the molecule B6, under setting [1], the Mean relative activity amounted to 0.32.

B7: cr004 (nucleic acid)
guide: GATTAAGAGCTAAGCTGGAAACAGCATAGCAAGTTTAAATAAGGCTAGTCCGTTATCAACTTGAAAAAGTGGCACCGAGTCGGTGCT
modifications: listed as DNA, chemistry not fully specified
Under setting [1], B7 came in with a Mean relative activity of 0.3103.

B8: cr889 (nucleic acid)
guide: GTTTAAGAGCTAAGCTGGAAACAGCATAGCAAGTTTAAATAAAGCTAGTCTGTTATCAACTTGAAAAAGTGTCACCGAGTCGGTGAT
modifications: listed as DNA, chemistry not fully specified
Molecule B8 had a Mean relative activity under setting [3] of 0.3347.

B9: cr014 (nucleic acid)
guide: GTTTCAGAGCTAAGCTGGAAACAGCATAGCAAGTTTAAATAAGGCTAGTCCGTTATCAACTTGAAAAAGTGGCACCGAGTCGGTGCT
modifications: listed as DNA, chemistry not fully specified
On to B9, for which the Mean relative activity under setting [3] is 0.3395.

B10: cr210 (nucleic acid)
guide: GTTTAAGAGCTAAGCTGGAAACAGCATAGCAAGTTTAAATAAGGCTAGTCCGTTATCTACTTGACAAAGTGGCACCGAGTCGGTGCT
modifications: listed as DNA, chemistry not fully specified
Molecule B10 registered a Mean relative activity under setting [1] of 0.313.

B11: cr897 (nucleic acid)
guide: GTTTAAGAGCTAAGCTGGAAACAGCATAGCAAGTTTATATAAGGCTAGTCCGTTATCAACTTGAAAAAGTGGCACCGAGTCGGTGCT
modifications: listed as DNA, chemistry not fully specified
The molecule B11 gave a Mean relative activity under setting [1] of 0.3233.

B12: cr322 (nucleic acid)
guide: GTTTAAGAGCTAAGCTGGAAACAGCATAGCAAGTTTAAATAAGGCTAGCCCGTTATGAACTTGAAAAAGTGGCACCGAGTCGGTGCT
modifications: listed as DNA, chemistry not fully specified
Molecule B12 came in with a Mean relative activity under setting [1] of 0.3033.

B13: cr634 (nucleic acid)
guide: GTTTAAGAGCTAAGCTGGAAACAGCATAGCAGGTTTAAATAAGGCTAGTCCGTTATCGACTTGAAAAAGTGGCACCGAGTCGGTGCT
modifications: listed as DNA, chemistry not fully specified
B13 yielded a Mean relative activity under setting [3] of 0.3508.

B14: cr242 (nucleic acid)
guide: GTTTAAGAGCTAAGCTGGAAACAGCATAGCAAGTTTAAATAAGGGTACTCCGTTATCAAGTTGAAAAACTGGCACCTAGTAGGTGCT
modifications: listed as DNA, chemistry not fully specified
Consider B14, for which, under setting [3], the Mean relative activity turned out to be 0.3244.

B15: cr573 (nucleic acid)
guide: GTTTAAGAGCTAAGCTGGAAACAGCATAGCTAGTTTAAATAAGGCTAGTCCGATATCAACTTGAAAAAGTCGCACCGAGTCGGTGCT
modifications: listed as DNA, chemistry not fully specified
B15 had a Mean relative activity under setting [3] of 0.3297.

B16: cr074 (nucleic acid)
guide: GTTTATGCGCTAAGCTGGAAACAGCATAGCAAGTTTAAATAAGGCTAGTCCGTTATCAACTTGAAAAAGTGGCACCGAGTCGGTGCT
modifications: listed as DNA, chemistry not fully specified
Take B16: the Mean relative activity under setting [3] stood at 0.341.

B17: cr709 (nucleic acid)
guide: GTTTAAGAGCTAAGCTGGAAACAGCATAGCAAGTTTAAATAAGGCTAGTCCGTTATTAACTTGAAAAAGTTGCACCGAGTCGGTGCT
modifications: listed as DNA, chemistry not fully specified
Consider B17, for which the Mean relative activity under setting [1] amounted to 0.3211.

B18: cr108 (nucleic acid)
guide: GTTTAAGAGCTAAGCTGGAAACAGCATAGCAAGTTTAAATAAAGCTAGTCTGTTATCAACTTGAGAAAGTGGCACCGAGTCGGTGCT
modifications: listed as DNA, chemistry not fully specified
B18: under setting [1], the Mean relative activity is 0.3221.

B19: cr055 (nucleic acid)
guide: GGTTAAGCGCTAAGCTGGAAACAGCATAGCAAGTTTAAATAAGGCTAGTCCGTTATCAACTTGAAAAAGTGGCACCGAGTCGGTGCT
modifications: listed as DNA, chemistry not fully specified
Take B19: the Mean relative activity under setting [1] turned out to be 0.3045.

B20: cr002 (nucleic acid)
guide: CTTTAAGAGCTAAGCTGGAAACAGCATAGCAAGTTTAAATAAGGCTAGTCCGTTATCAACTTGAAAAAGTGGCACCGAGTCGGTGCT
modifications: listed as DNA, chemistry not fully specified
Molecule B20 came in with a Mean relative activity under setting [1] of 0.3195.

B21: cr006 (nucleic acid)
guide: GGTTAAGAGCTAAGCTGGAAACAGCATAGCAAGTTTAAATAAGGCTAGTCCGTTATCAACTTGAAAAAGTGGCACCGAGTCGGTGCT
modifications: listed as DNA, chemistry not fully specified
Regarding B21, under setting [3], the Mean relative activity came to 0.3275.

B22: cr689 (nucleic acid)
guide: GTTTAAGAGCTAAGCTGGAAACAGCATAGCAAGCTTAAATAAGGCTAGTCCGTTTTCAACTTGATAAAGTGGCACCGAGTCGGTGCT
modifications: listed as DNA, chemistry not fully specified
Consider B22, for which the Mean relative activity under setting [3] was 0.3547.

B23: cr349 (nucleic acid)
guide: GTTTAAGAGCTAAGCTGGAAACAGCATAGCAAGTTTAAATAAGGCTAGTCCGTTATCAACTTGAAAAAGTGGCACCGAGTTGGTGCT
modifications: listed as DNA, chemistry not fully specified
Consider B23, for which the Mean relative activity under setting [3] is 0.3326.

B24: cr064 (nucleic acid)
guide: GTTTTAGAGCTAAGCTGGAAACAGCATAGCAAGTTTAAATAAGGCTAGTCCGTTATCAACTTGAAAAAGTGGCACCGAGTCGGTGCT
modifications: listed as DNA, chemistry not fully specified
B24 yielded a Mean relative activity under setting [3] of 0.3383.

B25: cr685 (nucleic acid)
guide: GTTTAAGAGCTAAGCTGGAAACAGCATAGCAAGTTTAAATAAGGCTAGTCCGTTATCAGCTTGAAAAAGTGGCACCGAGTCGGTGCT
modifications: listed as DNA, chemistry not fully specified
Turning to B25, the Mean relative activity under setting [2] is 1.041.

B26: cr586 (nucleic acid)
guide: GTTTAAGAGCTAAGCTGGAAACAGCATAGCAAGCTTAAATAAGGCTAGTCCGTTATCAACTTGAAAAAGTGGCCCCGAGTCGGGGCT
modifications: listed as DNA, chemistry not fully specified
On to B26, for which the Mean relative activity under setting [1] is listed as 0.2939.

B27: cr146 (nucleic acid)
guide: GTTTAAGAGCTAAGCTGGAAACAGCATAGCAAGTTTAAATAAGGCTAGTCCGTTATCAACTTGAAAAAGTGGCACGCAGTGCGTGCT
modifications: listed as DNA, chemistry not fully specified
B27 gave a Mean relative activity under setting [1] of 0.3141.

B28: cr209 (nucleic acid)
guide: GTTTAAGAGCTAAGCTGGAAACAGCATAGCAAGTTTAAATCAGGCTAGTCCGTTATCAACTTGAAAAAGTGGCACCGAGTCGGTGCT
modifications: listed as DNA, chemistry not fully specified
On to B28, for which the Mean relative activity under setting [1] came to 0.2959.

B29: cr466 (nucleic acid)
guide: GTTTAAGAGCTAAGCTGGAAACAGCATAGCAAGTTTAAAAAAGGCTAGTCCGTTATCAACTTGAAAAAGTGGCACCGAGTCGGTGCT
modifications: listed as DNA, chemistry not fully specified
On to B29, for which the Mean relative activity under setting [1] came out at 0.3153.
